Test results as given in a protein production outcome set (Wang et al. 2014).

Experiment: label from the status in PepcDB records
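Also: failed if final PepcDB status was selected cloned or expressed and not failed if soluble or beyond.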

| Sequence | protein production |
| --- | --- |
| MQGVLLALVPMFAWGSIGFVANKFGGDAKQQTLGMTLGAFVFALIVFLFRMPTLTWQIFLIGFIGGLLWAIGQFGQFNSMKYMGVSVASPLSSGSQLVIGGLIGVFAFHEWTKQIQFILGFIAMAVLVVGFYFSAKRDPENAVVEEGRNYTKGLTALTYSTLGYVIYVILFNNLAVLWFNVHFDTLTIILPMSVGMIFGALVMGRFKIKMEKYVYQNMIVGAMWGVGNIFMLMAASAAGNAIAFSFSQLGVIVSTIGGILFLGEKKTKKELVYVGIGIVLFVTGAILLAIVKSKG | failed |
| MQHGARHRWGLTSGYRPGSGRRPGPSAVVAVAAFALVVASQGAAVARPAQAAAADREFASSFESGEPAPDWLSTVDTAADGSKRASGVDGGYSTGIPGNVTDHVTDVRAGAENTGAGEVKENLVDGESSTKWLTFTPTGWAEFDLDAPVKLVTYALTSANDADERDPADWTLQGSTDGKDWKTLDTRTGESFAERFQTKSYDLASPAEYQHFRLDITKNHGADLLQLADVQFSTGGTSDPAPKDMLSLVDRGPSGSPTAKAGAGFTGKRALRYAGTHKADARAYSYNKVFDVNVGVGRDTELSYRIFPSMADKDRDYDATNVSVDLVFTDGTYLSDLKATDQHGFALTPQGQGAAKILYVNQWNNVVSRIGSVAAGRTVDRILVAYDSPKGPAKFRGWLDDIALKAAPPEKPKAHLSDYALTTRGTNSSSGFSRGNNFPATAVPHGFNFWTPVTNAGSLSWLYDYARSNNADNLPTIQAFSASHEPSPWMGDRQTFQVMPSAASGTPDTGRTARALAFRHENETARPYYYGVTFENGLKAEMAPTDHAAALRFTYPGDDASVLFDNVTDQAGLTLDKEHGIVTGYSDVKSGLSTGATRLFVYGVFDAPVKEGASSGVKGYLRFAPGADHTVTLRLATSLISVDQAKDNLGQEIPDGTSFTTVKNRAQQQWDKLLGKVEVEGATPDQLTTLYSSMYRLYLYPNSGFEKIGSKYRYASPFQPMPSPDTPTHTGAKIVDGKVYVNNGFWDTYRTTWPAYSFLTPGQAGEMVDGFVQQYKDGGWTSRWSSPGYADLMTGTSSDVAFADAYVKGVDFDAKAAYDAAVKNATVVPPSSGVGRKGMATSPFLGYTSTDTSEGLSWAMEGYNNDYGIARMGQALYKKTGKKRYKEEAAYFLNRAQDYVKLFDGKAGFFQGRDGKGDWRVDSATYDPRVWGYDYTETNGWGYAFTAPQDSRGLANLYGGRGALAKKLDTYFATPETASPDFVGSYGGVIHEMTEARDVRMGMYGHSNQVAHHVNYMYDAAGRPWKTQANVREVLSRLYTGSEIGQGYHGDEDNGEQSAWYLFSALGFYPLVMGSGEYAIGSPLFTKATVHLENGRDLVVKAPKNSAKNVYVQGLKVNGKKWTSTSLPHSLIAKGGVLAFDMGAKPSSWGSGGGAGPVSITKGDQVPSPRADAIKGGGALFDDTSATSATVTSVELPVAARTKAVQYTLTSSSDHTAAPAGWVLEASADGTHWTTVDRRTDESFTWDRQTRVFSIAHPGKYAHYRLVPTAEATLAEVELLS | failed |
| MQHPRQGPPSRHTRRSLGRSLALTMTAVLGAAGLALSPAASADSGPTTADPTEAHGLKGEYYTQSAPGAFDFAELKATGFDPGLDFDSLESRLSAATGRADDVSVRWTGEVVPEKSGPTTFSITGDNGFRLWVDGKLTIDHWVDDWDREQTSQPVDLTAGRAYDIKVEYFEHFGGSNLHLRWTPPGGSKSAVPQSAFRLPDGFDYNGALSATVLGDGRTVRLDFPQALASAPATVLDHLTVTSGGKWPLSSVKTDPSDARALLVGLGEPVVGNKAGTAKGGVNVTYDGKGALADTSGTPVKAFWSSGPNKSTYELRTKWADQVGPKNALPEYPRPQLTRKAWQNLNGTWQFAGAKAGEEPPTGRTLAERILVPYPVESQLSGIERHEDRMWYRRTFTVPADWKVGHGKRLRLNFGAVDWQSEVYVNGTKVAEHKGGYDKFSADVTDALKPGRTQELIVGVYDPTDAQGGENPPLGKQRLDPSGIWYTPSSGIWQTVWMEPVAADHVDTLKLTPDVETSTLTVEPKGVRDGLAVTATAYDGKKKVATVRGRTGTPLTLKLAEPRLWSPDDPFLYDLKVDVGADRVGSYFGMRSIAVEKVDGTPRTVLNGKPVFMMATLDQGFWPDGLHTAPTDDALAHDLKMHKQMGFNSVRKHIKVEPDRWFYWADRLGLLVWQDMPAMTAGVNPNAASRAEYEREMKQLIDEHISSPSVVMWVTFNEGWGQYDEARIADQAKAWDPTRLVNSMSGLNLGVDGGTGDVMDEHGYPSPALPPHPDGRRALVSGEYGGLGLGVPGHAWSVQMSYVDVDPAAYTDTYLARLDEVRRLACRGGNGAVYTQISDVEGELNGLMTYDRKIVKPDVQRLRTAHEALIEAVAQSTLPCATS | failed |
| MQHSTLEPSTSLDVPSCIPRVSRYPRVKDVIARKYRLVVKTIGYIGWSLFWLLIWDVLVTIDFMLFLNSKFTLPLIPLTLLGSALVVLVSFRNSSAYSRWWEARTLWGALVNSSRSFARQTLTLIDDPDDGLNPVKATLLRRHIAYVNCLAAHLKGESCPEELMAFIPPAEFERRNRSNNFANDILGGSAALLAREYQAGRLDSIRLARLESTLVDLSNAQGGMERIANTPLPYPYVYFPRLFITLFCLIVPVGLVESLGWFTPLASTVVGFMLLAIERIGTDLQSPFRFSEHQIQMDTICETIERNLESMQREAQCAEAVDA | failed |
| MQHYFYYIHSKHITPCFIFVDDVLSCLQRLNYQHLPAVSWSCFVSDQIIARVSQSLAKEQSLESLVRQLLEMLEMVTDMESTYLTKVDVEARLQHIMFARNSQKMHIPENFTVSWDYSLCKRAIDENCFFSDEVPDRWGDCIAARNLGITTFLSTPIHLPDGSFYGTLCAASSEKRQWSERAEQVLQLFAGLIAQYIQKEALVEQLREANAALIAQSYTDSLTGLPNRRAIFENLTTLFSLARHLNHKIMIAFIDLDNFKLINDRFGHNSGDLFLIQVGERLNTLQQNGEVIGRLGGDEFLVVSLNNENADISSLRERIQQQIRGEYHLGDVDLYYPGASLGIVEVDPETTDADSALHAADIAMYQEKKHKQKTPFVTHSALHS | failed |
| MQIGKVTGSLWATRKDEKLNGLKLLLVEITDEVEDKRHSIVAADNAGAGNGDLVLVTTGSAARASTGDNTIPVDACIVGIIDSVERYGLEHHHHHH | failed |
| MQIGPGSATRLEFRRHFAATPEQLWAALTSPALLPAWLFARGWPMTECVFEPHKGGLIRQVWTGPEGRTRGLTGRVILAEPPHRLIHSELYDEDWTGGETLVTLQLLPVEGGTELAMAVDYATPEARDAVAASAMATEMEEAYRHLDVMLAALEHHHHHH | not failed |
| MQIKAGLIWMNGAFVPQEEAKTSVLSHALHYGTSVFEGIRAYETAKGPAIFRLKEHVKRFYNSAKVLRMEIPFAPEELEEAIKEVVRRNGYRSCYIRPLAWMGAKALGVNPLPNNPAEVMVAAWEWGAYLGEEAVRKGARLITSSWARFPANVMPGKAKVGGNYVNSALAKMEAVAAGADEALLLDEEGYVAEGSGENLFFVRDGVIYALEHSVNLEGITRDSVIRIAKDLGYEVQVVRATRDQLYMADEVFMTGTAAEVTPVSMIDWRPIGKGTAGPVALRLREVYLEAVTGRRPEYEGWLTYVNGQ | not failed |
| MQINGKAPRNKDLEPHSFELWLNAAKTNLDKYEMALIITATLGLRRGEVMGLRNESIKISHDQINDADVAQISIDMQRNTNELNGGPLKTKSSYRTIWAFGKTVDHLKYAMITADNLRQRNNIQAEKHWLWLNNDGNPLHPTHLNRLMRRVSNRSGVEVYPHLLRHYFATQAIAANKPQIDVMHYLGHKNLQMTADYTRSTKAASLNVFNSIDKFLLEHHHHHH | not failed |
| MQISDIEVFAAIASSRSLSEAARRLGLSPMAISRRLAALENDLGVRLFHRTTRSVSLTPEGEVFLPHAKTILEASEAARTTLKADAGSASGVLRVTAPSVFGQTVIMPLLPALMLENPALSIDLTLSDSIVDIAGLGIDVAIRIATIRDSALVARSLAPNPRVVCVSPDYLARHGKPTLLEELRHHPCIALHAMPWWPFTRNGEPITIRAQGPFSANSVEAVRTACKQGMGLAMLTYWDVRQEINEGSLQQVDFEDAMPEQLSVTAVLPTRQRVPHRVRLFIDRLEAALKSKAGAAGVTL | failed |
| MQIYQLSGRNVEVTEPMREYVEEKLSRLDRYTDQITDARVTLTVRDVRNNERRNRVEVQLNVPGGIIRAEEHHADMYAAIDKASDVLERQLRKFKTRYMKQRQEGRPEPLPGPAEAEVNAQGSGAAMDDVSEFHPEIVRQKRFELRPMSAEDAVVQMEALGHDFYVFQDLQGQTGVVYRRRDGHYGLIGSS | failed |
| MQKALFNLVLRGLEKQVPATGLGLFRLAFGLVAFQEICFLYYFRQLIFDPVPYLDIASPSVHLFLVLWAIAALCLALGLYTRLAAIANYLFWLVFTVFTPMWKDFDGGFDQLMLGSSLLLIFLPSERAWSLDRLRLAWRHSTVDRCYALPRTVPVLCYFLPLAVSLGFIYFDSVIHKLFAEFWRNGLGPWLPSSLPYYMSPLDMGWLLEIEPLQRAIGYTIIAFQFAFLFLLYFRRFRVPLMLVGLSLHAGIIVSLNIYPFGFGMLVHYFLMVPFRWWRTLGRTLRPAEPALQVFYDERCPLCLKTVLAIEHFDVFRAVEFRGLQTHAATAPALEDIPERDLLGDLYAVDREGRRYSGVATYARILVAMRYPALAGLAMRLPGLATIADRVYRRIADNRVRLGCDASCAPAPGRTEPDLAQRIGRWVGGSLQQRANRISRMLVVVLILQLNCTLHYAILYRLGVDTKANEAGQVLTMLSNALISASHTFLGITPHPLYLHDHFQGYEHILGIVHLDADGKERWLPFVDEEGRIVSPNWGRVHSMWANVAVTRHMDPRRLDKFVRKVTAFWGTRLGLDLNRTTFVLKLKTVKAPMDWEPGLRRYNLAQPWEDVGRAVWRDGEMRLELDRDLEALSAD | failed |
| MQKGVYIMNSTSSIITIGREYGSGGRQIGQEVAKYFGIKCYDKELLEHAANDSGICKELFEHHDEKPTNSFLYSLVMDTYSFGYSSSGFSDMPMNHKIFLAQFDAIKKLAGEGPCVMVGRCADYALADWNDCFSIFVHADLDWRINRIASKHGKTPKEAKDMITKTDKSRASYYNYYTNKKWGAARSYNLCIDSGKLGIDYATEAIIESIKIFDRTKISK | failed |
| MQKTSFALLVAALQLASASALAATPPVADAIWFNGPIITIDDQHPKAQAVAVKDGKILAVGDRQHVLKNKGPATQMLDLKGATLLPGFVDPHGHVSMVGFQAASANLLPPPDGTNNSIPGLQETLRRFEQQSPIPKQFGVLFGFGYDDSQLQEQRHPTKADLDAVTRDLPIAIVHQSSHLGVLNSKALELAGIDASTPNPEGGVIRRVDGSQEPNGVLEENAFFNALIRIFPKLTADQAVDMLSAGQKLYVSYGYTTIQDGRSSPDQVKTAIKAAGDGKLLADIVSYPDILTPGVKQLMVAPWYHPSNQPVVYNQHFRIGGVKLTLDGSPQGKTAWLSQPYFKPPQGQDASYAGYGVVKDADALAIYKEALANRWQILSHTNGDRAIDQLLGSMRAAEQAYPGVDVRPVMIHGQTLRKDQVAELKQLKIFPSLFPMHTYYWGDWHRQSVLGPERAENISPTQWVLQAGMKFTTHHDAPVALPDSMRVLAATVNRTTRSGYVLGPDQRVTPLQALKAMTLWSAYQHFEEDRKGSITPGKLADFAVLSANPLTVKPETLSEIQVLKTVKEGRVIYERPAKVASLPPPFGMHGDPSLPVPQGIRAVAQGDGDLGPALDVIYDRLAPVQP | failed |
| MQLEPRINTFSMEAMFTFSSTFLYDSIVDSSRPILATSLLGCDVTDPERRATTACCICEETLSELHMTRPTQKVKAVSGPTRERHIIFSTCKPVL | failed |
| MQLKSRVFIVTGASSGLGAAVTRAGSGGRDSARAGPEAASGGRACRSSARRCASEMPTRMRPTPPPLAFAKQEFGHVHGLVNCAGTAPGEDSRQERPARTGQFRPHGRRQPDRHSTYGLPPRSCRRESRTPTASGVIVNTASIAAFDGQIGQAAYAAEGRRRRPDASGRARARAFRNSRRPLRPASSIRRWPACLRMFRMRAASVPFPPRLGRAEEYAALVKHIREYDAQWRGHPPRRGFAHGAPV | not failed |
